Measurements as given in patent publication US11597752B2, “Peptides and combination of peptides and scaffolds thereof for use in immunotherapy against colorectal carcinoma (CRC) and other cancers” (priority 2015, dated 2023).

How the values were obtained:
HLA-A*02:01 = HLA-A*02:01 (Homo sapiens, UniProt P04439, D140Y/D185E/D98H/E176V/E277Q/G131W/G231S/I119V/I121R/I166T/I218V/L300P/L318F/N151K/N90K/P208A/P217A/Q86G/Q94H/R138H/R169H/T345S); assay: MHC binding assay (UV-ligand exchange, beta2m ELISA, peptide exchange yield); conditions: binding to HLA-A*02:01, β2m ELISA
Procedure, shortened: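 Exchange yield is an ELISA read-out: complexes diluted 100-fold, captured on streptavidin plates, detected with HRP anti-β2m and TMB at 450 nm. Standard curve from refolded HLA-A*02:01/MLA-001 (15-500 ng/ml); complexes made by UV-triggered displacement of a photolabile ligand by test peptide.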

[1] = system: CD8+ T-cells of healthy HLA-A*02 donors; assay: In vitro immunogenicity: T-cell priming with aAPCs loaded with peptide/MHC and anti-CD28, multimer staining; type: cell-based, human; conditions: HLA-A*02 restricted peptides, among evaluable wells, Table 10B
Text: In order to obtain information regarding the immunogenicity of the TUMAPs of the present invention, the inventors performed investigations using an in vitro T-cell priming assay based on repeated stimulations of CD8+ T-cells with artificial antigen presenting cells (aAPCs) loaded with peptide/MHC complexes and anti-CD28 antibody.
In order to perform in vitro stimulations by artificial antigen presenting cells loaded with peptide-MHC complex (pMHC) and anti-CD28 antibody, the inventors first isolated CD8+ T-cells from fresh HLA-A*02 leukapheresis products via positive selection using CD8 microbeads (Miltenyi Biotec, Bergisch-Gladbach, Germany) of healthy donors obtained from the University clinics Mannheim, Germany, after informed consent.
PBMCs and isolated CD8+ lymphocytes were incubated in T-cell medium (TCM) until use consisting of RPMI-Glutamax (Invitrogen, Karlsruhe, Germany) supplemented with 10% heat inactivated human AB serum (PAN-Biotech, Aidenbach, Germany), 100 U/ml Penicillin/100 μg/ml Streptomycin (Cambrex, Cologne, Germany), 1 mM sodium pyruvate (CC Pro, Oberdorla, Germany), 20 μg/ml Gentamycin (Cambrex). 2.5 ng/ml IL-7 (PromoCell, Heidelberg, Germany) and 10 U/ml IL-2 (Novartis Pharma, Nürnberg, Germany) were also added to the TCM at this step.
Generation of pMHC/anti-CD28 coated beads, T-cell stimulations and readout was performed in a highly defined in vitro system using four different pMHC molecules per stimulation condition and 8 different pMHC molecules per readout condition.
The purified co-stimulatory mouse IgG2a anti human CD28 Ab 9.3 (Jung et al., 1987) was chemically biotinylated using Sulfo-N-hydroxysuccinimidobiotin as recommended by the manufacturer (Perbio, Bonn, Germany). Beads used were 5.6 μm diameter streptavidin coated polystyrene particles (Bangs Laboratories, Illinois, USA).
800.000 beads/200 μl were coated in 96-well plates in the presence of 4×12.5 ng different biotin-pMHC, washed and 600 ng biotin anti-CD28 were added subsequently in a volume of 200 μl. Stimulations were initiated in 96-well plates by co-incubating 1×10^6 CD8+ T-cells with 2×10^6 washed coated beads in 200 μl TCM supplemented with 5 ng/ml IL-12 (PromoCell) for 3 days at 37° C. Half of the medium was then exchanged by fresh TCM supplemented with 80 U/ml IL-2 and incubating was continued for 4 days at 37° C. This stimulation cycle was performed for a total of three times. For the pMHC multimer readout using 8 different pMHC molecules per condition, a two-dimensional combinatorial coding approach was used as previously described (Andersen et al., 2012) with minor modifications encompassing coupling to 5 different fluorochromes. Finally, multimeric analyses were performed by staining the cells with Live/dead near IR dye (Invitrogen, Karlsruhe, Germany), CD8-FITC antibody clone SK1 (BD, Heidelberg, Germany) and fluorescent pMHC multimers. For analysis, a BD LSRII SORP cytometer equipped with appropriate lasers and filters was used. Peptide specific cells were calculated as percentage of total CD8+ cells. Evaluation of multimeric analysis was done using the FlowJo software (Tree Star, Oregon, USA). In vitro priming of specific multimer+CD8+ lymphocytes was detected by comparing to negative control stimulations.

Substance	Peptide exchange (MHC class I binding score, peptide exchange yield) (HLA-A*02:01)	Wells positive [%] [1]
7 (YLTRHLAVL; listed as Homo sapiens) [compound 7]	“++” (≥20% = ++)	“+” (<20% = +)
64 (KTLGKLWRL; listed as Homo sapiens) [compound 64]	“++” (≥20% = ++)	“++++” (>=70% = ++++)
47 (KLYERCEVV; listed as Homo sapiens) [compound 47]	“++” (≥20% = ++)	“+” (<20% = +)
38 (SLAPTPVSA; listed as Homo sapiens) [compound 38]	“++” (≥20% = ++)	“+” (<20% = +)
123 (KTLERSYLL; listed as Homo sapiens) [compound 123]	“++” (≥20% = ++)	“+” (<20% = +)
2 (ALLPRYFFL; listed as Homo sapiens) [compound 2]	“++” (≥20% = ++)	“++++” (>=70% = ++++)
42 (SILDDSFKL; listed as Homo sapiens) [compound 42]	“++++” (≥75% = ++++)	“+” (<20% = +)
9 (ILDDHLSRV; listed as Homo sapiens) [compound 9]	“++” (≥20% = ++)	“+” (<20% = +)
18 (FLSSLKGGLL; listed as Homo sapiens) [compound 18]	“+++” (≥50 = +++)	“+” (<20% = +)
37 (GLFAGLGGAGA; listed as Homo sapiens) [compound 37]	“+++” (≥50 = +++)	“+” (<20% = +)
59 (LLTDNVVKL; listed as Homo sapiens) [compound 59]	“+++” (≥50 = +++)	“+” (<20% = +)
11 (YLFEKTFNM; listed as Homo sapiens) [compound 11]	“+++” (≥50 = +++)	“+” (<20% = +)
10 (RMYNKIFAI; listed as Homo sapiens) [compound 10]	“+++” (≥50 = +++)	“++++” (>=70% = ++++)
12 (ALVQGILERV; listed as Homo sapiens) [compound 12]	“+++” (≥50 = +++)	“++++” (>=70% = ++++)

The next lines start with results.

Peptide exchange (MHC class I binding score, peptide exchange yield) (HLA-A*02:01)	Substance	Wells positive [%] [1]
“+++” (≥50 = +++)	127 (RLAELTVDEFLA; listed as Homo sapiens) [compound 127]	“+” (<20% = +)
“+++” (≥50 = +++)	142 (SLVQRVETI; listed as Homo sapiens) [compound 142]	“+” (<20% = +)
“+++” (≥50 = +++)	150 (RLADLEALKV; listed as Homo sapiens) [compound 150]	“++” (20%-49% = ++)
“++” (≥20% = ++)	133 (RTFEKIEEV; listed as Homo sapiens) [compound 133]	“+” (<20% = +)
“+++” (≥50 = +++)	132 (ALLNAILHSA; listed as Homo sapiens) [compound 132]	“+” (<20% = +)
“++++” (≥75% = ++++)	141 (AVIEHLERL; listed as Homo sapiens) [compound 141]	“+” (<20% = +)
“+++” (≥50 = +++)	124 (RVLPPSALQSV; listed as Homo sapiens) [compound 124]	“+” (<20% = +)
